Data published in patent US20100285506A1.

Experiments:
[1] = biological target: MPT64 (Mycobacterium tuberculosis); test: CAPILIA TB kit; pretreated patient sputum, sample number 1, smear +
[2] = biological target: MPT64 (Mycobacterium tuberculosis); test: CAPILIA TB kit; pretreated patient sputum, sample number 2, smear +
[3] = biological target: MPT64 (Mycobacterium tuberculosis); test: CAPILIA TB kit; pretreated patient sputum, sample number 3, smear +
[4] = biological target: MPT64 (Mycobacterium tuberculosis); test: CAPILIA TB kit; pretreated patient sputum, sample number 4, smear 2+
[5] = biological target: MPT64 (Mycobacterium tuberculosis); test: CAPILIA TB kit; pretreated patient sputum, sample number 5, smear 2+
[6] = biological target: MPT64 (Mycobacterium tuberculosis); test: CAPILIA TB kit; pretreated patient sputum, sample number 6, smear 3+
[7] = biological target: MPT64 (Mycobacterium tuberculosis); test: CAPILIA TB kit; pretreated patient sputum, sample number 7, smear 3+
[8] = biological target: MPT64 (Mycobacterium tuberculosis); test: CAPILIA TB kit; pretreated patient sputum, sample number 8, smear 3+

CAPILIA TB (trade name; manufactured by TAUNS LABORATORIES INC.)
Absorbance [1]: 0
Absorbance [2]: 0
Absorbance [3]: 0
Absorbance [4]: 0
Absorbance [5]: 0
Absorbance [6]: 0
Absorbance [7]: 0
Absorbance [8]: 23
